Experimental data reported in patent US9144594B2, “Cathepsin L mediated diseases and associated methods and products” (University of Miami, priority 2005, dated 2015).
Changes are numbered by the printed parent chain. Names and notes keep the numbering of the source. “Also recorded” adds a separate entry of the source.

B1: dynK44A: dominant-negative dynamin mutant that cannot bind GTP (protein, UniProt Q05193 1-864, looked up, variant K44A)
Dynamin-1: MGNRGMEDLIPLVNRLQDAFSAIGQNADLDLPQIAVVGGQSAGASSVLENFVGRDFLPRGSGIVTRRPLVLQLVNATTEYAEFLHCKGKKFTDFEEVRLEIEAETDRVTGTNKGISPVPINLRVYSPHVLNLTLVDLPGMTKVPVGDQPPDIEFQIRDMLMQFVTKENCLILAVSPANSDLANSDALKVAKEVDPQGQRTIGVITKLDLMDEGTDARDVLENKLLPLRRGYIGVVNRSQKDIDGKKDITAALAAERKFFLSHPSYRHLADRMGTPYLQKVLNQQLTNHIRDTLPGLRNKLQSQLLSIEKEVEEYKNFRPDDPARKTKALLQMVQQFAVDFEKRIEGSGDQIDTYELSGGARINRIFHERFPFELVKMEFDEKELRREISYAIKNIHGIRTGLFTPDMAFETIVKKQVKKIREPCLKCVDMVISELISTVRQCTKKLQQYPRLREEMERIVTTHIREREGRTKEQVMLLIDIELAYMNTNHEDFIGFANAQQRSNQMNKKKTSGNQDEILVIRKGWLTINNIGIMKGGSKEYWFVLTAENLSWYKDDEEKEKKYMLSVDNLKLRDVEKGFMSSKHIFALFNTEQRNVYKDYRQLELACETQEEVDSWKASFLRAGVYPERVGDKEKASETEENGSDSFMHSMDPQLERQVETIRNLVDSYMAIVNKTVRDLMPKTIMHLMINNTKEFIFSELLANLYSCGDQNTLMEESAEQAQRRDEMLRMYHALKEALSIIGDINTTTVSTPMPPPVDDSWLQVQSVPAGRRSPTSSPTPQRRAPAVPPARPGSRGPAPGPPPAGSALGGAPPVPSRPGASPDPFGPPPQVPSRPNRAPPGVPSRSGQASPSRPESPRPPFDL
B2: dynK694A: dominant activator dynamin mutant impaired in self-assembly (protein)
chain: B1 Dynamin-1 with A44K, K694A
B3: dynL356Q, G358V: dynamin mutant (SEQ ID NO.3) not recognized by cathepsin L; ELSGGA mutated to EQSVGA (protein, listed as Homo sapiens)
chain: B1 Dynamin-1 with A44K, L356Q, G358V
B4: dynR725A: dynamin mutant (SEQ ID NO.4) with impaired GTP hydrolysis capacity (protein, listed as Homo sapiens)
chain: B1 Dynamin-1 with A44K, R725A

Experiments:
Format in all cases: cell-based, mouse
[1] = test system: podocytes; assay: Podocyte motility, modified Boyden chamber assay; details: for podocyte motility, in words: adenoviral overexpression
From the text: (§1) This study examined the role of dynamin in actin dynamics of podocytes. An adenoviral expression system was utilized to obtain expression of various dynamin mutants with more than 90% infection efficiency in cultured differentiated mouse podocytes and analyzed the organization of the actin cytoskeleton, their migratory and endocytotic behavior (FIG. 1). […] This type of actin rearrangement in cultured podocytes is resembling actin rearrangement in damaged podocytes during proteinuria in situ (Smoyer and Mundel, 1998). […] Thus, the consequence on actin dynamics in podocytes was examined when dynamin is hyperactive by expressing known dominant activators, dynK694A and dynR725A (SEQ ID NO.4). Both mutants are predicted to live longer in the GTP-bound form. […] To further examine this surprising phenotype in a biological context, motility assays were performed next using a modified Boyden Chamber assay.
Podocyte migration was analyzed using a 12-well chemotaxis chamber (Neuro Probe) according to the manufacturer's protocol. In brief, differentiated podocytes were treated with 50 μg/ml of LPS or PAN for 24 h and then harvested for the migration assay. Bottom plates were coated with type-I collagen, while upper plates were loaded with equal number of cells (5×10^4) suspended in medium. The chamber was incubated at 37° C. for 4 h before unassembled. The membrane was then taken out, processed and finally stained with diamidino phenylindole (DAPI) (Vector). The average number of migrated cells was counted in four fields in six independent experiments.
(§2) Podocytes were grown under non-permissive conditions to 70% confluence. Cells were washed twice with 1×PBS and infected with 1.2 ml of serum-free DMEM media containing 100 μl transactivator virus, 100 μl virus expressing dyn1 or dyn2. After 2 h of infection at 37° C., media containing virus was replaced with full DMEM. If cells were treated with LPS or PAN, 50 μg/ml of LPS or 50 μg/ml PAN was added at this point. 18-24 h post-infection, cells were detached using trypsin and processed either for subcellular fractionation or tested in the motility assays as described in (Reiser et al., J Biol Chem 279, 34827-34832 (2004)). When stated, 20 μM of Z-FF-FMK CatL specific inhibitor (Calbiochem, San Diego, Calif.) was added simultaneously with addition of LPS.

[2] = test system: dynamin-dynamin interactions; assay: FLIM analysis of dynamin-dynamin interactions (self-assembly) in podocytes; details: in ps
Method: In one embodiment the cell-based assay to monitor dynamin-dynamin interactions is performed on a cultured mouse podocyte cell line and the readout of dynamin self-assembly using fluorescence lifetime imaging microscopy (FLIM). FLIM is based on the fluorescence resonance energy transfer (FRET) between the donor and acceptor that shortens the lifetime of the donor if the acceptor distance is within ≈100 Å (10 nm). […] The assay is based on overexpressing dynamin in podocytes, and subsequently staining fixed cells with monoclonal anti-dynamin antibodies that have been conjugated with donor or acceptor florophores. In one embodiment of the invention, Alexa-488 is used as the donor florophore and Alexa-568 is used as the acceptor florophore. In yet another embodiment the donor florophore is dynamin conjugated enhanced-cyan fluorescence protein (ECFP) and the acceptor is dynamin conjugated enhanced yellow-fluorescence protein (EYFP). It will be appreciated by the person of ordinary skill in the art that numerous combinations of FRET donor and acceptors can be used, which are readily available and known. In one embodiment, the FLIM assay is carried out in COS cells and the donor can be selected from the list consisting of: ECFP-WT, ECFP-1690K, ECFP-K44A, ECFP-K694A, and the -acceptor can be selected from the list consisting of: EYFP, EYFP-WT, EYFP-K44A, EYFP-1690K, EYFP-K694A. In yet another embodiment the FLIM assay is performed in podocytes and the donor is GTPase-Alexa488 and the acceptor is selected from the list consisting of: DAM-Alexa568, GTPase-Alexa568, and Hudyl-Alexa568. Cells are stained by mixing both donor and acceptor florophores in equal amounts, and examining the spatially-restricted lifetime shortening in cells detects the localization of dynamin-dynamin interactions in cells. Since dynamin-dynamin interactions are vital for the function of the podocyte, it will be appreciated by the person of ordinary skill in the art that this assay can now be used to screen peptides, small molecules or drugs which can affect these molecular interactions. For example such molecules are cytocholasin D, jasplakinolide, colchisine, dynK44A, dynK694A, dynWT, dynI690K, dynR725A (SEQ ID NO.4), dynL356Q, G358V, (SEQ ID NO.3) any combination thereof, etc.
In order to test the hypothesis that self-assembly of dynamin was protecting its cathepsin L processing in cultured podocytes, dynamin self-assembly in live cells was examined using fluorescence lifetime imaging microscopy (FLIM). FLIM is based on the fluorescence resonance energy transfer (FRET) between the donor and the acceptor that shortens the lifetime of the donor if the acceptor distance is within ≈100 Å (10 nm). […] A FLIM-assay was developed that specifically detects dynamin self-assembly into the higher order structures in podocytes. The assay is based on overexpressing dynamin in podocytes, and subsequently staining fixed cells with monoclonal anti-dynamin antibodies that have been conjugated with either Alexa-488 (donor florophore) or Alexa-568 (acceptor florophore). Cells are stained by mixing both florophores in equal amounts, and examining lifetime of Alexa-488. […] Importantly, FRET only occurred in the vicinity of the membrane. […] Thus, both dominant activating mutants, dynK694A and dynR725A, are impaired for assembly into a supramolecular structures in podocytes under normal conditions. […] Loss of FRET measured FLIM correlates with the loss of p40 proteolytic fragment in cultured podocytes. And presence of p40 in cells expressing dynR725A under normal conditions correlates with the lack of dynR725A assembly detected by FLIM. The opposite is true for the dynWT; lack of p40 under control conditions when FLIM is present, and appearance of the p40 upon LPS treatment with no measurable FRET. […] Finally, proteolytic processing of dynamin after LPS treatment is also observed in vivo. […]

[3] = test system: podocytes; assay: Actin stress fiber staining in cultured podocytes; details: for actin stress fibers, in words: overexpression in cultured podocytes
From the text: as §1
Since podocyte FP effacement is primarily driven by the rearrangement of the actin cytoskeleton (Asanuma et al., 2006), actin morphology was examined in cultured podocytes expressing different dynamin mutants. Podocytes were infected with various dynamin constructs using an adenoviral expression system that enables greater than 90% efficiency of infection. The experiments were performed using dyn1 (FIG. 22) as well as dyn2, with identical results. […] Thus, treatments which abolish actin stress fibers in cultured podocytes cause proteinuria in mice. […] Consistent with this notion, the deleterious effects of LPS (which reduces stress fibers) on kidney function were ameliorated by expression of dynR725A (which induces stress fibers).
as §2

[4] = Table 1, donor GTPase-Alexa488, acceptor Hudy1-Alexa568, podocytes overexpressing the dynamin variant
[5] = Table 4, donor GTPase-a488, acceptor Hudy1-a568

Molecule	podocyte motility, in words [1]	Mean Lifetime (γ1) [2, 4]	Mean Lifetime (γ1) ([2]; Table 4, donor GTPase-a488, acceptor GTPase-a568)	Mean Lifetime (γ1) [2, 5]	actin stress fibers, in words [3]	LPS-induced increase in podocyte motility, in words ([1]; LPS-treated podocytes)	loss of stress fibers under LPS or PAN, in words ([3]; LPS and PAN treatment)
dynWT: wild type dynamin overexpressed by adenovirus or delivered as dynamin 1 cDNA	did not change podocyte motility	2212 ± 65	2423 ± 46	2254 ± 60	did not dramatically alter stress fiber pattern; also recorded: did not significantly alter the F-actin staining pattern	–	–
B1	dramatically increased cell motility	–	–	2515 ± 43	loss of stress fibers; also recorded: abolished stress fibers	–	–
B2	did not change podocyte motility	–	–	2408 ± 40	did not dramatically change actin stress fibers	–	–
B3	–	–	–	–	did not significantly alter the F-actin staining pattern	–	–
B4	significantly decreased podocyte motility; also recorded: decreasing motility	2408 ± 128	–	–	significantly induced stress fibers formation; also recorded: decreasing cortical actin and inducing stress fibers	blocked the LPS-induced increase in podocyte motility	prevented the loss of actin stress fibers; also recorded: inhibited the ability of LPS to reduce stress fibers
